# Data reported in US20200165349A1 (Genmab, published 2020).
# Where a chain is given by its changes, count along the chain named. Numbers in names are those of the source.
# B1: CD137-009 (antibody, human IgG1, kappa, V domains shown)
# VH: QSLEESGGRLVTPGTPLTLTCTVSGFSLNDYWMSWVRQAPGKGLEWIGYIDVGGSLYYASWAKGRFTISRTSTTVDLKMTSLTTEDTATYFCARGGLTYGFDLWGPGTLVTVSS
# VL: DIVMTQTPASVSEPVGGTVTINCQASEDISSYLAWYQQKPGQRPKRLIYGASDLASGVPSRFSASGSGTEYALTISDLESADAATYYCHYYATISGLGVAFGGGTEVVVKR
# notes: Rabbit variable regions on human IgG1; also called chimeric CD137 antibody; rabbit anti-CD137-009
# B2: PD-L1-547-FEAR (antibody, human IgG1, lambda, V domains shown)
# VH: EVQLLEPGGGLVQPGGSLRLSCEASGSTFSTYAMSWVRQAPGKGLEWVSGFSGSGGFTFYADSVRGRFTISRDSSKNTLFLQMSSLRAEDTAVYYCAIPARGYNYGSFQHWGQGTLVTVSS
# VL: SYVLTQPPSVSVAPGQTARITCGGNNIGSKSVHWYQQKPGQAPVLVVYDDNDRPSGLPERFSGSNSGNTATLTISRVEAGDEADYYCQVWDSSSDHVVFGGGTKLTVLG
# notes: Human IgG1 lambda with L234F, L235E, D265A and K409R
# B3: CD137-005-FEAR-A488 (antibody, V domains shown)
# VH: QSVEESGGRLVTPGTPLTLTCTASGFTISDFHVTWVRQAPGKGLEWIGTIITSASTTAYATWARGRFTISKSSTTVNLKIVSPTTEDTATYFCARSTYTDTSGYYFDFWGQGTLVTVSS
# VL: AQVLTQTASPVSAAVGGTVIINCQSSQSIYNGNRLSWYQQKPGQPPKLLIYSASTLASGVSSRFKGSGSGTQFTLAISDVQSDDAATYYCLGSYDCDSADCFAFGGGTEVVVER
# notes: Conjugated with Alexa Fluor 488
# B4: PD-L1-547-FEAL×CD137-009-HC7LC2-FEAR (bispecific antibody, human IgG1, kappa, lambda)
# heavy 1: EVQLLEPGGGLVQPGGSLRLSCEASGSTFSTYAMSWVRQAPGKGLEWVSGFSGSGGFTFYADSVRGRFTISRDSSKNTLFLQMSSLRAEDTAVYYCAIPARGYNYGSFQHWGQGTLVTVSSASTKGPSVFPLAPSSKSTSGGTAALGCLVKDYFPEPVTVSWNSGALTSGVHTFPAVLQSSGLYSLSSVVTVPSSSLGTQTYICNVNHKPSNTKVDKRVEPKSCDKTHTCPPCPAPEFEGGPSVFLFPPKPKDTLMISRTPEVTCVVVAVSHEDPEVKFNWYVDGVEVHNAKTKPREEQYNSTYRVVSVLTVLHQDWLNGKEYKCKVSNKALPAPIEKTISKAKGQPREPQVYTLPPSREEMTKNQVSLTCLVKGFYPSDIAVEWESNGQPENNYKTTPPVLDSDGSFLLYSKLTVDKSRWQQGNVFSCSVMHEALHNHYTQKSLSLSPGK
# light 1: SYVLTQPPSVSVAPGQTARITCGGNNIGSKSVHWYQQKPGQAPVLVVYDDNDRPSGLPERFSGSNSGNTATLTISRVEAGDEADYYCQVWDSSSDHVVFGGGTKLTVLGQPKAAPSVTLFPPSSEELQANKATLVCLISDFYPGAVTVAWKADSSPVKAGVETTTPSKQSNNKYAASSYLSLTPEQWKSHRSYSCQVTHEGSTVEKTVAPTECS
# heavy 2: EVQLVESGGGLVQPGRSLRLSCTASGFSLNDYWMSWVRQAPGKGLEWVGYIDVGGSLYYAASVKGRFTISRDDSKSIAYLQMNSLKTEDTAVYYCARGGLTYGFDLWGQGTLVTVSSASTKGPSVFPLAPSSKSTSGGTAALGCLVKDYFPEPVTVSWNSGALTSGVHTFPAVLQSSGLYSLSSVVTVPSSSLGTQTYICNVNHKPSNTKVDKRVEPKSCDKTHTCPPCPAPEFEGGPSVFLFPPKPKDTLMISRTPEVTCVVVAVSHEDPEVKFNWYVDGVEVHNAKTKPREEQYNSTYRVVSVLTVLHQDWLNGKEYKCKVSNKALPAPIEKTISKAKGQPREPQVYTLPPSREEMTKNQVSLTCLVKGFYPSDIAVEWESNGQPENNYKTTPPVLDSDGSFFLYSRLTVDKSRWQQGNVFSCSVMHEALHNHYTQKSLSLSPGK
# light 2: DIVMTQSPSSLSASVGDRVTITCQASEDISSYLAWYQQKPGKAPKRLIYGASDLASGVPSRFSASGSGTDYTFTISSLQPEDIATYYCHYYATISGLGVAFGGGTKVEIKRTVAAPSVFIFPPSDEQLKSGTASVVCLLNNFYPREAKVQWKVDNALQSGNSQESVTEQDSKDSTYSLSSTLTLSKADYEKHKVYACEVTHQGLSSPVTKSFNRGEC
# B5: b12-FEAL×PD-L1-547-FEAR (bispecific antibody, not shown: large carriers)
# heavy 1: QVQLVQSGAEVKKPGASVKVSCQASGYRFSNFVIHWVRQAPGQRFEWMGWINPYNGNKEFSAKFQDRVTFTADTSANTAYMELRSLRSADTAVYYCARVGPYSWDDSPQDNYYMDVWGKGTTVIVSSASTKGPSVFPLAPSSKSTSGGTAALGCLVKDYFPEPVTVSWNSGALTSGVHTFPAVLQSSGLYSLSSVVTVPSSSLGTQTYICNVNHKPSNTKVDKRVEPKSCDKTHTCPPCPAPEFEGGPSVFLFPPKPKDTLMISRTPEVTCVVVAVSHEDPEVKFNWYVDGVEVHNAKTKPREEQYNSTYRVVSVLTVLHQDWLNGKEYKCKVSNKALPAPIEKTISKAKGQPREPQVYTLPPSREEMTKNQVSLTCLVKGFYPSDIAVEWESNGQPENNYKTTPPVLDSDGSFLLYSKLTVDKSRWQQGNVFSCSVMHEALHNHYTQKSLSLSPGK
# light 1: EIVLTQSPGTLSLSPGERATFSCRSSHSIRSRRVAWYQHKPGQAPRLVIHGVSNRASGISDRFSGSGSGTDFTLTITRVEPEDFALYYCQVYGASSYTFGQGTKLERK
# heavy 2: B4 heavy 1 with L409F, K413R
# light 2: B4 light 1
# notes: also called monovalent PD-L1 antibody; monovalent PD-L1-control antibody
# B6: CD137-009-FEAL×PD-L1-547-FEAR (bispecific antibody, human IgG1, kappa, lambda)
# heavy 1: QSLEESGGRLVTPGTPLTLTCTVSGFSLNDYWMSWVRQAPGKGLEWIGYIDVGGSLYYASWAKGRFTISRTSTTVDLKMTSLTTEDTATYFCARGGLTYGFDLWGPGTLVTVSSASTKGPSVFPLAPSSKSTSGGTAALGCLVKDYFPEPVTVSWNSGALTSGVHTFPAVLQSSGLYSLSSVVTVPSSSLGTQTYICNVNHKPSNTKVDKRVEPKSCDKTHTCPPCPAPEFEGGPSVFLFPPKPKDTLMISRTPEVTCVVVAVSHEDPEVKFNWYVDGVEVHNAKTKPREEQYNSTYRVVSVLTVLHQDWLNGKEYKCKVSNKALPAPIEKTISKAKGQPREPQVYTLPPSREEMTKNQVSLTCLVKGFYPSDIAVEWESNGQPENNYKTTPPVLDSDGSFLLYSKLTVDKSRWQQGNVFSCSVMHEALHNHYTQKSLSLSPGK
# light 1: DIVMTQTPASVSEPVGGTVTINCQASEDISSYLAWYQQKPGQRPKRLIYGASDLASGVPSRFSASGSGTEYALTISDLESADAATYYCHYYATISGLGVAFGGGTEVVVKRTVAAPSVFIFPPSDEQLKSGTASVVCLLNNFYPREAKVQWKVDNALQSGNSQESVTEQDSKDSTYSLSSTLTLSKADYEKHKVYACEVTHQGLSSPVTKSFNRGEC
# heavy 2: B4 heavy 1 with L409F, K413R
# light 2: B4 light 1
# B7: b12-FEAL×CD137-009-FEAR-A488 (bispecific antibody, not shown: large carriers)
# heavy 1: B5 heavy 1
# light 1: B5 light 1
# heavy 2: B6 heavy 1 with L402F, K406R
# light 2: B6 light 1
# How the values were obtained:
# Wild boar CD137 = target: T1, Wild boar CD137 (wild boar (Sus scrofa)); assay: flow cytometry on transfected HEK293T-17 cells
# T1 construct: Amino acids 1-23 are stated to be a predicted signal peptide; Expressed on HEK293T-17 cells; also called Sus scrofa CD137
# T1 chain: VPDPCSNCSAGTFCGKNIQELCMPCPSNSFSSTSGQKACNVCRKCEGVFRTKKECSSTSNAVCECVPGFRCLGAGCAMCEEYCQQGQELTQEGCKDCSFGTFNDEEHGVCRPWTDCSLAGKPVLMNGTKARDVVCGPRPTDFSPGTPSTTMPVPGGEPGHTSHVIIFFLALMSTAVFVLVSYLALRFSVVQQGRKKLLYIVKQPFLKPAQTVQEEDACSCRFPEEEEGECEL
# African elephant CD137 = target: T2, African elephant CD137 (African elephant (Loxodonta africana)); assay: flow cytometry on transfected HEK293T-17 cells
# T2 construct: Amino acids 1-23 are stated to be a predicted signal peptide; Expressed on HEK293T-17 cells; also called Loxodonta africana CD137
# T2 chain: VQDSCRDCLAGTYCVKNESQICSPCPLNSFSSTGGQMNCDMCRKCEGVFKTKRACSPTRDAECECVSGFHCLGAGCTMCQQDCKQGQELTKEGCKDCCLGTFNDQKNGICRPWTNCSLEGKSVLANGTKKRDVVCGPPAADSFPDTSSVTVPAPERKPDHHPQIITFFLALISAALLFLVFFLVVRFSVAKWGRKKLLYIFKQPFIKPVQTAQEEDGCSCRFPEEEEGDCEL
# [1] = target: T3, Human CD137 shuffle 5 (amino acids 48-88 of African elephant CD137) (human with African elephant residues …, UniProt Q07011 24-255); assay: flow cytometry on transfected HEK293T-17 cells
# T3 construct: also called shuffle construct 5; shuffle 5/elephant
# T3 chain: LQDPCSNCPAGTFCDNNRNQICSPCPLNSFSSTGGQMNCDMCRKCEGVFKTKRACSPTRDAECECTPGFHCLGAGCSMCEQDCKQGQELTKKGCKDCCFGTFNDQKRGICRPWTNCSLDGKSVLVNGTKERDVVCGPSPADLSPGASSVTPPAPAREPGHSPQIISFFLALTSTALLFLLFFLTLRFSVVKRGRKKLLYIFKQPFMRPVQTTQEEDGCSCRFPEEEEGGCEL
# Human CD137 [2] = target: T4, Human CD137 (human, UniProt Q07011 24-255); assay: flow cytometry on transfected HEK293T-17 cells, 1 µg/mL antibody
# T4 construct: also called hCD137 wt; 4-1BB
# Human PD-L1 = target: T5, Human PD-L1 (human, UniProt Q9NZQ7 19-290); assay: flow cytometry on MDA-MB-231 tumor cells
# T5 construct: Amino acids 1-18 are stated to be a predicted signal peptide; also called CD274; B7H1
# Human CD137 [3] = target: T4, Human CD137; assay: flow cytometry on FreeStyle HEK293 cells expressing CD137 (alanine scanning), 3 µg/mL A488-labeled antibody
# Human CD137 [4] = target: T4, Human CD137; assay: cell-based or functional assay
# Human CD137 [5] = target: T4, Human CD137; assay: cell-based or functional assay; remark: listed apart in the source
# T5 sequence (Q9NZQ7 19-290): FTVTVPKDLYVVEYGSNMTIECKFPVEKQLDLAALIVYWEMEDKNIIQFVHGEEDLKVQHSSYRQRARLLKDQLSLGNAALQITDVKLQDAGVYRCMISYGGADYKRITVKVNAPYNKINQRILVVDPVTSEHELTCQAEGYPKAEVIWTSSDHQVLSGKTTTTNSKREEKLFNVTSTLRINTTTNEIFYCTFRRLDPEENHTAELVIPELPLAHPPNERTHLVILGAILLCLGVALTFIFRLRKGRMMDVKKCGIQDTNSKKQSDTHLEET
binder,measurement,setting,value
B1,binding result,Wild boar CD137,no binding (tested: 1 µg/mL)
same,binding result,African elephant CD137,no binding (tested: 1 µg/mL)
same,binding result,[1],no binding (tested: 1 µg/mL)
same,binding result,Human CD137 [2],binds
B2,binding result,Human PD-L1,binds
B3,binding result,Human CD137 [3],binds
B4,"EC50 value, CD8+ T-cell expansion, donor 1, 0.03 µg/ml anti-CD3",Human CD137 [4],0.0122 µg/mL
same,"EC50 value, CD8+ T-cell expansion, donor 2, 0.09 µg/ml anti-CD3",Human CD137 [4],6.89 ng/mL
B5,binding result,Human PD-L1,binds
B6,"EC50 of the induction of antigen-specific T cell proliferation, '% divided cells'",Human CD137 [5],3.49 ng/mL
same,"EC50 of the induction of antigen-specific T cell proliferation, 'proliferation index'",Human CD137 [5],5.39 ng/mL
B7,binding result,Human CD137 [3],binds
